# Reference: a protein production outcome set (Wang et al. 2014)
# Assay: label from the status in PepcDB records
row,Sequence,protein production
1,MSLSASLGATRFRPDLLSLDDLDEAQLHALLTLAHQLKRGERVANLHGKVLGLVFLKASTRTRVSFTVAMYQLGGQVIDLSPSNTQVGRGEPVRDTARVLGRYVDGLAIRTFAQTELEEYAHYAGIPVINALTDHEHPCQVVADLLTIRENFGRLAGLKLAYVGDGNNVAHSLLLGCAKVGMSIAVATPEGFTPDPAVSARASEIAGRTGAEVQILRDPFEAARGAHILYTDVWTSMGQEAETQHRLQLFEQYQINAALLNCAAAEAIVLHCLPAHRGEEITDEVMEGPRSRIWDEAENRLHAQKAVLAALMGGREGHHHHHH,not failed
2,MSLPPILTSQIGPDSIELRLLVAADLEYFNGHFPEQAVLPGVTQLDWAVRLGCEHFGYSAAVANLEVLKFQQLILPGQEVTLVISHNATKEKLTFAYSDGDHRYASGRISFASKQDDGLEHHHHHH,failed
3,MGKKELKRGLVVDREAQMIGVYLFEDGKTYRGIPRGKVLKKTKIYAGDYVWGEVVDPNTFAIEEVEERKNLLIRPKVANVDRVIIVETLKMPEFNNYLLDNMLVVYEYFKVEPVIVFNKIDLLNEEEKKELERWISIYRDAGYDVLKVSAKTGEGIDELVDYLEGFICILAGPSGVGKSSILSRLTGEELRTQEVSEKTERGRHTTTGVRLIPFGKGSFVGDTPGFSKVEATMFVKPREVRNYFREFLRYQCKYPDCTHTNEPGCAVKEAVKNGEISCERYKSYLKIIKVYLEEIKELCRED,not failed
4,MTGPTTDADAAVPRRVLIAEDEALIRMDLAEMLREEGYEIVGEAGDGQEAVELAELHKPDLVIMDVKMPRRDGIDAASEIASKRIAPIVVLTAFSQRDLVERARDAGAMAYLVKPFSISDLIPAIELAVSRFREITALEGEVATLSERLETRKLVERAKGLLQTKHGMTEPDAFKWIQRAAMDRRTTMKRVAEVVLETLGTPKDT,not failed
5,DFPKINHGILYDEEKYKPFSQVPTGEVFYYSCEYNFVSPSKSFWTRITCAEEGWSPTPKCLRLCFFPFVENGHSESSGQTHLEGDTVQIICNTGYRLQNNENNISCVERGWSTPPKCRSTISAEKCGPPPPIDNGDITSFLLSVYAPGSSVEYQCQNLYQLEGNNQITCRNGQWSEPPKCLDPCVISQEIMEKYNIKLKWTNQQKLYSRTGDIVEFVCKSGYHPTKSHSFRAMCQNGKLVYPSCEEK,not failed
6,MLKFPLCCSELSLEPKILAFESQLVSGRRDTIKVSAGKIGNFSLGSIFKSCETCGAKGAIECPGCKGTGKNKKNGNMFERWKCFDCQGFGMKSCPKCGKGGLTPEQRGER,failed
7,MDNDAAKKQLEFLKGGFKLLCQSGGAIFGDADFDGGNLEASEWIAMTEAQFLGGDYSEKDKLACVSGFFGGQAKFWFHKELSWIPFNSWSQVKDGLLLTFGNNRDKKRVLVELDLEMKHWIKDFDRKREPHKFLES,failed
8,MDFFFVEYRDPLVGLIILTILVFVVAVANYIWKIFANKDEEQKLEKFIKKFEMDNAHKELLRNSSLSFGNLSFLAEIFTKSGEFEKATQIYLIALEKCKDKQEREFIFLSLAKVYFKAGFLERAKEVLLQALKLRPRNIQALKLLKIVYLKLRSYKENLELLECLFELNEDVQKERDFIKALELCTFNITDEEKKKKLLEFKIEDNPMLGRLVFEKYHMFLGQNFFDICDLLYRENEAFNLENQDFLEFFYALGKISKHDDTHQFVFKNSNFKMLKILKDNSFNAGLEFSYRCSECKNVMPLFFYHCPVCYEFNTCKIIYEVKNNETH,failed
9,MNSRMKIKKAYEYMKSFHQHDTTGHDIAHVERVYNNACYIAKRENITDTLVIELSSLLHDTVDSKLTDEILAYDQLKQFLSTLDLSSEISQQVLYIIKHMSYRAGKNNHVKLSIDGEIVRDADRLDAIGAIGIARTFQFSGHFGEPMWTETKLSNEELHTSLVEELDNSAIKHFYEKLFKLKDLMHTPTAKKLAEERHQFMIQYLKQFMSEWNFNKELEHHHHHH,not failed
10,MGRNQGAYLDPSESILMLMVAFLLVLLNAFFVLSEFALVKVRKTRLEELVKIGNSNAKLALKMSQRLDTYLSATQLGITLSSLALGWVGEPAIAKLLAALFESMDLRENPIFIHSMSVVIAFLSITFLHVVLGEIVPKSLAIAKSEKATLFAARPLHVFWVVFYPVVRLFDVIAHFFLKKMGINPKEHDGTHSEEELKIIVGESLREGIIDSVEGEIIKNAXDFSDTSAKEIMTPRKDMVCLDEENSYEENIDIVLKGHFTRYPYCKGSKDNIIGMVHIRDLLSRSIFTPKMHDFNQIVRKMIIVPESASISQILIKMKKEQIHTALVIDEYGGTAGLLTMEDIIEEIMGEISDEYDLKQEGINKLEEGVFELEGMLDLESVEEALHIEFDKECEQVTLGGYVFSLLERMPMEGDTIVSHGYSFEVLSVDGARIKRLKAVKQDQGENEA,failed
11,MADKEAAFDDAVEERVINEEYKIWKKNTPFLYDLVMTHALEWPSLTAQWLPDVTRPDGKDFSIHRLVLGTHTSDEQNHLVIASVQLPNDDAQFDASHYDSEKGEFGGFGSVSGKIEIEIKINHEGEVNRARYMPQNPCIIATKTPSCDVLVFDYTKHPSKPDPSGECNPDLRLRGHQKEGYGLSWNPNLSGNLLSASDDHTICLWDISAVPKEGKVVDAKTIFTGHTAVVEDVSWHLLHESLFGSVADDQKLMIWDTRSNNTSKPSHSVDAHTAEVNCLSFNPYSEFILATGSADKTVALWDLRNLKLKLHSFESHKDEIFQVQWSPHNETILASSGTDRRLNVWDLSKIGEEQSPEDAEDGPPELLFIHGGHTAKISDFSWNPNEPWVICSVSEDNIMQVWQMAENIYNDEDTEGSVDPEGQGS,not failed
12,MSLAKPIEAHTVSPVNPNAQQTTKTVMNWLAHLPNRTENRVLSGAFGGYSHDTFSMAEADRIRSATGQSPAIYGCDYARGWLETANIEDSIDVSCNGDLMSYWKNGGIPQISLHLANPAFQSGHFKTPITNDQYKKILDSSTVEGKRLNAMLSKIADGLQELENQGVPVLFRPLHEMNGEWFWWGLTSYNQKDNERISLYKQLYKKIYHYMTDTRGLDHLIWVYSPDANRDFKTDFYPGASYVDIVGLDAYFQDAYSINGYDQLTALNKPFAFTEVGPQTANGSFDYSLFINAIKQKYPKTIYFLAWNDEWSAAVNKGASALYHDSWTLNKGEIWNGDSLTPIVEEGHHHHHH,not failed
13,RRRNQKRANAERERLRQIIDTIPQQVFVKDADGTYTLANKAAAAAHGVAVERLEGATHDEFALSDEQRDFKSDDAAVIENGESVHIEEDGLVEADGSSHTVQTDIVPIEIASGERRALVVATDIT,failed
14,MRALLLIAALLAPTAALAQQQLPLWPNGAPGFESRKAIPEQAADYWVKSVNNPSITAYLPPKETATGAALIVLPGGGHRILVIHSEGSDVAKVMNPKGVAVFVVKYRLFREEGSPYTIDHARQDAVRAVRYVRAHAAVFGVDPKRIGLMGFSAGGEAVNLAVYQGAANDPKTDAVDAVSARPDFQVLVYPGPLGVPEKVPTDTPPAFIVAANDDECCSAPPVDLLTRFRAAKVPIEFHLFQSGGHAFNMGLRSHKAALKAWPDRLFDWLADNGWLKAG,failed
15,AVYLDCRDLQRTWEVIFNLFEPELQEFTRKVPINHIRQLVEHKHAKPVFSSPIVEGETVMVSCQFTCMEKTIKVYGFGSNKDQAKLSAAKHALQQLSKCDA,failed
16,MFKITPFSTQQHVIIQITDTHLLEDPQQEFVGINPERSFHCVMQHIRQHHAQIDAIIHTGDLAQTPTPATYARYLDFMQSFGVPFFHVPGNHDHPEFFPFHQASPSELSIVVLGNWHVILMNSAVVGQVDGWINDQQIQQLRDHLAAHPDTPTIVACHHHPFDMHSKWIDQHKLKNTPDLLATFKHYPQIRAVLCGHVHQESLHRWEHIDFLSSPSTSVQFKPRSDEFAFDTLPSGYRILRLNSDGQFDSNIHRIENMLQNINTEISGY,failed
17,MNDNYEVFAIKYATYQQRRRNENFLPADEHDAGLMPLDYYVWLLKSPARTILVDTGFNPPEAAARNREQSRCPIEALRLLDVAPDDIDDVIITHLHYDHAGNLEKIPRARFHIQDKEVEFATGRCMCHAPLRFAYSPADVSNFIHKLYAGRVVFHDGAGVVAPGVEVLHVGGHTKGLQAVRVMTQRGWVVLASDASHFYENLEAARPFPLVADVAEMLDGFERLVRAAGSPSHVVPGHDPAVMTRYPTHPRDPQGIALLHLPTLA,failed
